Laboratory results: publication PMC2756588

B1: unnamed (peptide)
chain: QTREPNEPPPPSPAM
B2: unnamed (peptide)
chain: GKFIPSRPAPKPPSS
B3: unnamed (peptide)
chain: DTFLPPPPPPPSNFE

What follows are binders tested against T1, Lsb1, P53281 (assay: SPOT array). Details: median of control spots 388.
T1 sequence (P53281 45-122, looked up): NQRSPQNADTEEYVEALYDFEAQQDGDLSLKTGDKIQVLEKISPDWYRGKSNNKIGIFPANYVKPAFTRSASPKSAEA

Going from B1 to B2, the SPOT intensity rises from 0 to 360.

B3 gave an SPOT intensity of 0.

The binders below were run against T2, Cyk3, Q07533 (assay: SPOT array). Details: median of control spots 1451.
T2 sequence (Q07533 1-83, looked up): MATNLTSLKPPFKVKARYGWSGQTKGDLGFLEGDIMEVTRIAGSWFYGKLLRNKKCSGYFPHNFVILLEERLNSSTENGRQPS

Going from B1 to B2, the SPOT intensity rises from 1 to 2.

In the case of B3, the SPOT intensity is reported as 0.

The binders below were run against Bem1-1, P29366 (assay: SPOT array). Details: median of control spots 4282.
Sequence of Bem1-1, P29366 (P29366 55-141): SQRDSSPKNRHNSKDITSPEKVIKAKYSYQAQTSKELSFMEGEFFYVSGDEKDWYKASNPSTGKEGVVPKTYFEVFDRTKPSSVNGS

B1 and B2 are the same in SPOT intensity: 1 for the first, 1 for the second.

With B3 the SPOT intensity was 0.

These binders were tested against T3, Hse1, P38753 (assay: SPOT array). Details: median of control spots 1727.
T3 sequence (P38753 208-285, looked up): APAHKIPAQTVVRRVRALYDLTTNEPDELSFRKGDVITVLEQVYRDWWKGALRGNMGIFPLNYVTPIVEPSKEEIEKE

B1 and B2 are the same in SPOT intensity: 0 for the first, 0 for the second.

For B3, the SPOT intensity was 0.

These binders were tested against T4, Hof1, Q05080 (assay: SPOT array). Details: median of control spots 4086.
T4 sequence (Q05080 590-669, looked up): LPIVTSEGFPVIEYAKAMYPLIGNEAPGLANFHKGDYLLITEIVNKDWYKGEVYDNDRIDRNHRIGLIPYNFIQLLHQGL

B1 and B2 are the same in SPOT intensity: 0 for the first, 0 for the second.

B3 showed an SPOT intensity of 0.

What follows are binders tested against T5, Lsb4, P32793 (assay: SPOT array). Details: median of control spots 397.
T5 sequence (P32793 402-468, looked up): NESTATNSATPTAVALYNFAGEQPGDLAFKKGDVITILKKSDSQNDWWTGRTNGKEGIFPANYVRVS

First: B1
Second: B2
The SPOT intensity of the first is lower: 13 for the first, 56 for the second.

B3 gave an SPOT intensity of 0.

What follows are binders tested against T6, Fus1, P11710 (assay: SPOT array). Details: median of control spots 1200.
T6 sequence (P11710 432-512, looked up): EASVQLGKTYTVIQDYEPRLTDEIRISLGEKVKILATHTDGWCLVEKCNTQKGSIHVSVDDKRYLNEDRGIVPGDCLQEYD

B1 and B2 are the same in SPOT intensity: 0 for the first, 0 for the second.

For B3, the SPOT intensity was 0.

What follows are binders tested against T7, Lsb3, P43603 (assay: SPOT array). Details: median of control spots 406.
T7 sequence (P43603 385-451, looked up): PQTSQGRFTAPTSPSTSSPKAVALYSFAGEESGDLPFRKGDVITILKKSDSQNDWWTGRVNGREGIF

Going from B1 to B2, the SPOT intensity rises from 2 to 21.

B3 was tested, and the SPOT intensity was 0.

These binders were tested against T8, Pin3, Q06449 (assay: SPOT array). Details: median of control spots 2171.
T8 sequence (Q06449 53-122, looked up): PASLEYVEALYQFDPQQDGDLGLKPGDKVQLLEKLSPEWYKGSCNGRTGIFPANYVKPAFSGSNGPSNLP

Compared with B1, B2 is lower in SPOT intensity: 21 for the first, 12 for the second.

B3 gave an SPOT intensity of 0.

Each binder was assayed against T9, Boi2, P39969 (assay: SPOT array). Details: median of control spots 1161.
T9 sequence (P39969 32-116, looked up): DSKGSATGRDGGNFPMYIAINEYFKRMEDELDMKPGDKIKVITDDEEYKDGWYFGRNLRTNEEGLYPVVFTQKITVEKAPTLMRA

First: B1
Second: B2
The SPOT intensity of the first is lower: 3 for the first, 4 for the second.

For B3, the SPOT intensity was 3.

Each binder was assayed against T10, Boi1, P38041 (assay: SPOT array). Details: median of control spots 1162.
T10 sequence (P38041 1-86, looked up): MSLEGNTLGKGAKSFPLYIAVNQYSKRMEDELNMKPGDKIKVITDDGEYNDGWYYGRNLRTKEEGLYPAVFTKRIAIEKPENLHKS

First: B1
Second: B2
The SPOT intensity of the first is lower: 0 for the first, 3 for the second.

For B3, the SPOT intensity was 1.

What follows are binders tested against T11, Myo5, Q04439 (assay: SPOT array). Details: median of control spots 471.
T11 sequence (Q04439 1072-1160, looked up): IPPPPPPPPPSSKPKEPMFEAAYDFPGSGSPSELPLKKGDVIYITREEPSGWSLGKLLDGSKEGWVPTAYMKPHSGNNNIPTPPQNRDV

Compared with B1, B2 is higher in SPOT intensity: 515 for the first, 593 for the second.

In the case of B3, the SPOT intensity is reported as 453.

What follows are binders tested against Sho1, P40073 (assay: SPOT array). Details: median of control spots 1148.
Sequence of Sho1, P40073 (P40073 287-367): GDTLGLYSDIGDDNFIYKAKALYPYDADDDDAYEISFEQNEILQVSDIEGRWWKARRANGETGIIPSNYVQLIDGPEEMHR

Going from B1 to B2, the SPOT intensity rises from 0 to 22.

B3 was tested, and the SPOT intensity was 0.

These binders were tested against T12, Bbc1, P47068 (assay: SPOT array). Details: median of control spots 796.
T12 sequence (P47068 1-78, looked up): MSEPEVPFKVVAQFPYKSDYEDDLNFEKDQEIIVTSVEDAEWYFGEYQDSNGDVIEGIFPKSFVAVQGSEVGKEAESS

Compared with B1, B2 is higher in SPOT intensity: 0 for the first, 138 for the second.

B3 gave an SPOT intensity of 0.

These binders were tested against T13, Bud14, P27637 (assay: SPOT array). Details: median of control spots 956.
T13 sequence (P27637 247-328, looked up): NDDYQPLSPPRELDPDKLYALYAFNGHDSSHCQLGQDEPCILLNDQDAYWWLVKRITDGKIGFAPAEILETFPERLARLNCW

B1 and B2 are the same in SPOT intensity: 0 for the first, 0 for the second.

With B3 the SPOT intensity was 0.

These binders were tested against T14, Bzz1-1, P38822 (assay: SPOT array). Details: median of control spots 4446.
T14 sequence (P38822 478-572, looked up): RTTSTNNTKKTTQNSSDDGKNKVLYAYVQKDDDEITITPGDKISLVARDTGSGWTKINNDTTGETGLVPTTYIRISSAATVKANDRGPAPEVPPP

Compared with B1, B2 is higher in SPOT intensity: 0 for the first, 2 for the second.

In the case of B3, the SPOT intensity is reported as 3.

The binders below were run against Bem1-2, P29366 (assay: SPOT array). Details: median of control spots 4347.
Sequence of Bem1-2, P29366 (P29366 139-227): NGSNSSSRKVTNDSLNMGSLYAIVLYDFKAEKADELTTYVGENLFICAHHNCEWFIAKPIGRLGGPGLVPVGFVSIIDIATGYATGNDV

Going from B1 to B2, the SPOT intensity rises from 0 to 14600.

With B3 the SPOT intensity was 0.

What follows are binders tested against GST (assay: SPOT array). Details: median of control spots 978.

B1 and B2 are the same in SPOT intensity: 0 for the first, 0 for the second.

With B3 the SPOT intensity was 0.

These binders were tested against T15, Abp1, P15891 (assay: SPOT array). Details: median of control spots 935.
T15 sequence (P15891 535-592, looked up): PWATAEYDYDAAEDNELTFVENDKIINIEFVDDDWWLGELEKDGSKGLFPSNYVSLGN

First: B1
Second: B2
The SPOT intensity of the first is lower: 7 for the first, 231 for the second.

B3 showed an SPOT intensity of 0.

The binders below were run against Myo3, P36006 (assay: SPOT array). Details: median of control spots 468.

Compared with B1, B2 is higher in SPOT intensity: 502 for the first, 553 for the second.

In the case of B3, the SPOT intensity is reported as 518.

Each binder was assayed against T16, Pex13, P80667 (assay: SPOT array). Details: median of control spots 1341.
T16 sequence (P80667 295-386, looked up): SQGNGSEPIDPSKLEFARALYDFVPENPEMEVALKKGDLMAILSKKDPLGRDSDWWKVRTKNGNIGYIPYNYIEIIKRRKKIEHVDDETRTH

Going from B1 to B2, the SPOT intensity rises from 7 to 362.

B3 gave an SPOT intensity of 8.

Each binder was assayed against T17, Cdc25, P04821 (assay: SPOT array). Details: median of control spots 969.
T17 sequence (P04821 50-136, looked up): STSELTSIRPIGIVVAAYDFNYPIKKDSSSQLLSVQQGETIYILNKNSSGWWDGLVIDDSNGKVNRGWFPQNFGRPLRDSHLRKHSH

Compared with B1, B2 is higher in SPOT intensity: 0 for the first, 4 for the second.

For B3, the SPOT intensity was 0.

What follows are binders tested against T18, Bzz1-2, P38822 (assay: SPOT array). Details: median of control spots 4538.
T18 sequence (P38822 568-633, looked up): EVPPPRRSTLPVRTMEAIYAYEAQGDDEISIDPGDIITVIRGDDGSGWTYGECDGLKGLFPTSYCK

Going from B1 to B2, the SPOT intensity rises from 0 to 52.

B3 gave an SPOT intensity of 0.

What follows are binders tested against T19, Nbp2, Q12163 (assay: SPOT array). Details: median of control spots 357.
T19 sequence (Q12163 103-180, looked up): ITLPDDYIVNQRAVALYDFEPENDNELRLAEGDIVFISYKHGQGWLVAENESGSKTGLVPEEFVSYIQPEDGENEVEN

First: B1
Second: B2
The SPOT intensity of the first is lower: 0 for the first, 2880 for the second.

B3 gave an SPOT intensity of 0.

The binders below were run against Rvs167, P39743 (assay: SPOT array). Details: median of control spots 2707.
Sequence of Rvs167, P39743 (P39743 419-482): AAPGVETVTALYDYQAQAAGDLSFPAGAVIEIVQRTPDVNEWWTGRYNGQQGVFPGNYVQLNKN

First: B1
Second: B2
The SPOT intensity of the first is lower: 4 for the first, 5 for the second.

For B3, the SPOT intensity was 0.

These binders were tested against T20, Sla1-3, P32790 (assay: SPOT array). Details: median of control spots 5475.
T20 sequence (P32790 344-424, looked up): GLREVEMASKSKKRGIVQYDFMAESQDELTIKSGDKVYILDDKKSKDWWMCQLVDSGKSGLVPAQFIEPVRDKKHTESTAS

Compared with B1, B2 is higher in SPOT intensity: 0 for the first, 492 for the second.

For B3, the SPOT intensity was 0.

Each binder was assayed against T21, Sla1-2, P32790 (assay: SPOT array). Details: median of control spots 712.
T21 sequence (P32790 60-140, looked up): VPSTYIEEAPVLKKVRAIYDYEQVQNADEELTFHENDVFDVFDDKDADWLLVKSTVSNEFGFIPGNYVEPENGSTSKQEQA

B1 and B2 are the same in SPOT intensity: 0 for the first, 0 for the second.

B3 gave an SPOT intensity of 0.
